# Measured values published in patent US11325966.
# Experiments:
# Experiment in all cases: cell-based or functional assay
# [1] = molecular target: HIV-1 Env of pseudovirus CNE21 (HIV-1)
# [2] = molecular target: HIV-1 Env of pseudovirus CNE52 (HIV-1)
# [3] = molecular target: HIV-1 Env of pseudovirus 191084 B7-19 (HIV-1)
# [4] = molecular target: HIV-1 Env of pseudovirus 6041.v3.c23 (HIV-1)
# [5] = molecular target: HIV-1 Env of pseudovirus Du156.12 (HIV-1)
# [6] = molecular target: HIV-1 Env of pseudovirus R2184.c04 (HIV-1)
# [7] = molecular target: HIV-1 Env of pseudovirus ZM53M.PB12 (HIV-1)
# [8] = molecular target: HIV-1 Env of pseudovirus CNE19 (HIV-1)
# [9] = molecular target: HIV-1 Env of pseudovirus Ce704809221_1B3 (HIV-1)
# [10] = molecular target: HIV-1 Env of pseudovirus WITO4160.33 (HIV-1)
# [11] = molecular target: HIV-1 Env of pseudovirus R1166.c01 (HIV-1)
# [12] = molecular target: HIV-1 Env of pseudovirus X1632_S2_B10 (HIV-1)
# [13] = molecular target: HIV-1 Env of pseudovirus Q842.d12 (HIV-1)
# [14] = molecular target: HIV-1 Env of pseudovirus 6244_13_B5_4576 (HIV-1)
# [15] = molecular target: HIV-1 Env of pseudovirus T251-18 (HIV-1)
# [16] = molecular target: HIV-1 Env of pseudovirus BJOX025000.01.1 (HIV-1)
# [17] = molecular target: HIV-1 Env of pseudovirus ZM249M.PL1 (HIV-1)
# [18] = molecular target: HIV-1 Env of pseudovirus C2101.c01 (HIV-1)
# [19] = molecular target: HIV-1 Env of pseudovirus P0402_c2_11 (HIV-1)
# [20] = molecular target: HIV-1 Env of pseudovirus R3265.c06 (HIV-1)
# [21] = molecular target: HIV-1 Env of pseudovirus 263-8 (HIV-1)
# [22] = molecular target: HIV-1 Env of pseudovirus CAP210.2.00.E8 (HIV-1)
# [23] = molecular target: HIV-1 Env of pseudovirus HIV-16845-2.22 (HIV-1)
# [24] = molecular target: HIV-1 Env of pseudovirus 231965.c01 (HIV-1)
# [25] = molecular target: HIV-1 Env of pseudovirus P1981_C5_3 (HIV-1)
# [26] = molecular target: HIV-1 Env of pseudovirus Ce2060_G9 (HIV-1)
# [27] = molecular target: HIV-1 Env of pseudovirus CNE20 (HIV-1)
# [28] = molecular target: HIV-1 Env of pseudovirus X1193_c1 (HIV-1)
# [29] = molecular target: HIV-1 Env of pseudovirus Ce1172_H1 (HIV-1)
# [30] = molecular target: HIV-1 Env of pseudovirus THRO4156.18 (HIV-1)
# [31] = molecular target: HIV-1 Env of pseudovirus X2131_C1_B5 (HIV-1)
# [32] = molecular target: HIV-1 Env of pseudovirus C4118.c09 (HIV-1)
# [33] = molecular target: HIV-1 Env of pseudovirus 1054_07_TC4_1499 (HIV-1)
# [34] = molecular target: HIV-1 Env of pseudovirus 3016.v5.c45 (HIV-1)
# [35] = molecular target: HIV-1 Env of pseudovirus 1006_11_C3_1601 (HIV-1)
# [36] = molecular target: HIV-1 Env of pseudovirus T278-50 (HIV-1)
# [37] = molecular target: HIV-1 Env of pseudovirus 6480.v4.c25 (HIV-1)
# [38] = molecular target: HIV-1 Env of pseudovirus CAP45.2.00.G3 (HIV-1)
# [39] = molecular target: HIV-1 Env of pseudovirus A07412M1.vrc12 (HIV-1)
binder,measurement,setting,value
"10-1074 (antibody, V domains shown) VH: QVQLQESGPGLVKPSETLSVTCSVSGDSMNNYYWTWIRQSPGKGLEWIGYISDRESATYNPSLNSRVVISRDTSKNQLSLKLNSVTPADTAVYYCATARRGQRIYGVVSFGEFFYYYSMDVWGKGTTVTVSS VL: SYVRPLSVALGETARISCGRQALGSRAVQWYQHRPGQAPILLIYNNQDRPSGIPERFSGTPDINFGTRATLTISGVEAGDEADYYCHMWDSRSGFSWSFGGATRLTVL",IC50 in TZM-bl assay,[1],0.047 µg/mL
same,IC80 in TZM-bl assay,[1],0.124 µg/mL
same,IC50 in TZM-bl assay,[2],1.99 µg/mL
same,IC80 in TZM-bl assay,[2],9.76 µg/mL
same,IC50 in TZM-bl assay,[3],0.026 µg/mL
same,IC80 in TZM-bl assay,[3],0.108 µg/mL
same,IC50 in TZM-bl assay,[4],> 10 µg/mL
same,IC80 in TZM-bl assay,[4],> 10 µg/mL
same,IC50 in TZM-bl assay,[5],0.01 µg/mL
same,IC80 in TZM-bl assay,[5],0.036 µg/mL
same,IC50 in TZM-bl assay,[6],> 10 µg/mL
same,IC80 in TZM-bl assay,[6],> 10 µg/mL
same,IC50 in TZM-bl assay,[7],> 10 µg/mL
same,IC80 in TZM-bl assay,[7],> 10 µg/mL
same,IC50 in TZM-bl assay,[8],0.075 µg/mL
same,IC80 in TZM-bl assay,[8],> 10 µg/mL
same,IC50 in TZM-bl assay,[9],0.084 µg/mL
same,IC80 in TZM-bl assay,[9],0.395 µg/mL
same,IC50 in TZM-bl assay,[10],0.111 µg/mL
same,IC80 in TZM-bl assay,[10],0.828 µg/mL
same,IC50 in TZM-bl assay,[11],> 10 µg/mL
same,IC80 in TZM-bl assay,[11],> 10 µg/mL
same,IC50 in TZM-bl assay,[12],> 10 µg/mL
same,IC80 in TZM-bl assay,[12],> 10 µg/mL
same,IC50 in TZM-bl assay,[13],> 10 µg/mL
same,IC80 in TZM-bl assay,[13],> 10 µg/mL
same,IC50 in TZM-bl assay,[14],0.091 µg/mL
same,IC80 in TZM-bl assay,[14],0.38 µg/mL
same,IC50 in TZM-bl assay,[15],0.399 µg/mL
same,IC80 in TZM-bl assay,[15],2.29 µg/mL
same,IC50 in TZM-bl assay,[16],> 10 µg/mL
same,IC80 in TZM-bl assay,[16],> 10 µg/mL
same,IC50 in TZM-bl assay,[17],> 10 µg/mL
same,IC80 in TZM-bl assay,[17],> 10 µg/mL
same,IC50 in TZM-bl assay,[18],> 10 µg/mL
same,IC80 in TZM-bl assay,[18],> 10 µg/mL
same,IC50 in TZM-bl assay,[19],0.008 µg/mL
same,IC80 in TZM-bl assay,[19],0.024 µg/mL
same,IC50 in TZM-bl assay,[20],> 10 µg/mL
same,IC80 in TZM-bl assay,[20],> 10 µg/mL
same,IC50 in TZM-bl assay,[21],0.416 µg/mL
same,IC80 in TZM-bl assay,[21],5.71 µg/mL
same,IC50 in TZM-bl assay,[22],> 10 µg/mL
same,IC80 in TZM-bl assay,[22],> 10 µg/mL
same,IC50 in TZM-bl assay,[23],0.727 µg/mL
same,IC80 in TZM-bl assay,[23],3.93 µg/mL
same,IC50 in TZM-bl assay,[24],> 10 µg/mL
same,IC80 in TZM-bl assay,[24],> 10 µg/mL
same,IC50 in TZM-bl assay,[25],0.004 µg/mL
same,IC80 in TZM-bl assay,[25],0.013 µg/mL
same,IC50 in TZM-bl assay,[26],> 10 µg/mL
same,IC80 in TZM-bl assay,[26],> 10 µg/mL
same,IC50 in TZM-bl assay,[27],0.002 µg/mL
same,IC80 in TZM-bl assay,[27],0.005 µg/mL
same,IC50 in TZM-bl assay,[28],0.07 µg/mL
same,IC80 in TZM-bl assay,[28],0.207 µg/mL
same,IC50 in TZM-bl assay,[29],0.019 µg/mL
same,IC80 in TZM-bl assay,[29],0.083 µg/mL
same,IC50 in TZM-bl assay,[30],> 10 µg/mL
same,IC80 in TZM-bl assay,[30],> 10 µg/mL
same,IC50 in TZM-bl assay,[31],0.014 µg/mL
same,IC80 in TZM-bl assay,[31],0.056 µg/mL
same,IC50 in TZM-bl assay,[32],> 10 µg/mL
same,IC80 in TZM-bl assay,[32],> 10 µg/mL
same,IC50 in TZM-bl assay,[33],0.048 µg/mL
same,IC80 in TZM-bl assay,[33],0.222 µg/mL
same,IC50 in TZM-bl assay,[34],> 10 µg/mL
same,IC80 in TZM-bl assay,[34],> 10 µg/mL
same,IC50 in TZM-bl assay,[35],0.002 µg/mL
same,IC80 in TZM-bl assay,[35],0.006 µg/mL
same,IC50 in TZM-bl assay,[36],1.71 µg/mL
same,IC80 in TZM-bl assay,[36],> 10 µg/mL
same,IC50 in TZM-bl assay,[37],0.006 µg/mL
same,IC80 in TZM-bl assay,[37],0.023 µg/mL
same,IC50 in TZM-bl assay,[38],> 10 µg/mL
same,IC80 in TZM-bl assay,[38],> 10 µg/mL
same,IC50 in TZM-bl assay,[39],0.011 µg/mL
same,IC80 in TZM-bl assay,[39],0.037 µg/mL
